The results in this text go back to the nanobody polyreactivity screen of Harvey et al. (2022).

The series can be described thus: yeast display, Sf9 membrane polyspecificity reagent, FACS + sequencing; frameworks hold sequencing errors. Summed up: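 Polyreactivity labels are assigned by the sorting gate from which each nanobody was recovered. The gates were low and high (top ~1%), set on anti-HA fluorescence for expression and streptavidin fluorescence for reagent binding. Before sorting, galactose-induced (36–48 hours) yeast display cells were stained for 1 hour at 4 °C with 10% biotinylated, detergent-solubilized Sf9 membrane reagent.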
As to “HVQLQETGGGLVQAGGCLSCTASGTIFGQGDMGWYRPAPGKERELVATINDGASTYYADSVKGRFTISRDKAKNTVYLQKNSLKPDDTAVNYCAVFTDITTYFGYWGQGTQVTVSS”, the “polyreactivity (PSR sort gate)” value was “low polyreactivity”.
Regarding “HVQLVDSGGGLVQAGGSLRLSCAASGFIFRRYAMGWYRQAPGKERELVAAIRSDGSTNYADSVKGRFTISRDNAKNTVYLQLNSLKPEDTAVYYCAATYYSYTWFSQYYYWGQGTQVTVSS”, the “polyreactivity (PSR sort gate)” value is listed as “high polyreactivity”.
As for “HVQLVESAGGLVQAGGSLRLSCAASGRIFAVYAMGWYRQAPGKERELVAAISYIGGSTYYADSVKGRFTISRDNAKNTVYLQMNSLKPEDTAVYYCNKDIPKRQYVVYRTAYEYDYWGQGTQVSVSS”, the entry is “low polyreactivity”; as for “HVQLVESAGGLVQEGGSLRVSCAASGFTFSFYAMGGYRQAPGKERELVAAISWNSGSTYYADSVKGRFTISRDNAKNTVYLQMNSLKPADTAVYYCAADVQRYRGITYYYWGQGTPVTVSS”, “high polyreactivity”; as for “HVQLVESGGGFVQAGGSLRLSCAASGITFVKYTMGWYRQAPGKERELVAASSRSDGRTYYADSVKGRFTISRDNAKNSVYLQMNSLKPEDTAVYYCNAVYGVIGKGYNYWGQGTQVTVSS”, “high polyreactivity”.
Consider “HVQLVESGGGIVQAGGSLRLSCAASGLIFSYYAMGWYRQAPGKERELVAAINSGGSTYYADSVKGRFTISRDNAKNTVYLQMNSLKPEDSAVYYCAAHLWYHGHLFDYWGQGTQVTVSS”, for which the “polyreactivity (PSR sort gate)” value is given as “high polyreactivity”.
Under “HVQLVESGGGIVQAGGSLRLSCAASGLIVINYAMGRYRQARGKERELVATIRYCGGSTNYADSVKGRFTISRDNAKNTVYLQMNSLKPEDNAVYYCNAGYYPTGYDYWGQGTQVTVSS” stands “low polyreactivity”; under “HVQLVESGGGLVHAGGSLRLSCAASGAIFWVNAMGWYREAPGKERELVADISRSGANTYYADSVKGRFTISRDNAKNTVYLQMTSLNPEDTAVYYCAKGVFYPWWYVQPEHDYWGQGTQVTVSS”, “high polyreactivity”.
Under “HVQLVESGGGLVQAGGSLPLSCAASGRTFDHYAMGWYRQAPGKEREFVAAITSGGSTYYADSVKGRFRISRDNAKNTVYLQMNSLKPVDTAVYYCNNDSSFWGYYIAQVNERDYWGQGTQVTVSS” stands “low polyreactivity”.
As for “HVQLVESGGGLVQAGGSLRLICAASGFIFRFNAMGWYRQAPGKERELVAAISGSGGITYYADSVKGRFTISRDNAKNTVYLQMNSLKPEDTAVYYCAARPLFGWRGYNYWGQGTQVTVSS”, the entry is “high polyreactivity”.
As for “HVQLVESGGGLVQAGGSLRLRCAASGITFAEYTMGWYRQAPGKERELVAAISRRGGSTYYADSVKGRLTISRDNAKNTVYLQMNSLKPEDTAVYYCNALFRYSRDYWGQGTQVTVSS”, the “polyreactivity (PSR sort gate)” value is listed as “high polyreactivity”.
With “HVQLVESGGGLVQAGGSLRLSCAACGSTFRRYTMGWYIQAPGKDRELVAAITWSGGSTYYADSVKGRFTISRDNAKNTVYLQMNSLKPEDTAVYYCAADRPYHTREYYYWGQGSQVTVSS”, the “polyreactivity (PSR sort gate)” value is “low polyreactivity”.
As for “HVQLVESGGGLVQAGGSLRLSCAASGFIIADNAMGWDRQAPGKERELVAAISSSGGSTYYADSVKARFTISRDNAKNTVYLQMNSLKPVDTAVYYCAARTYHPRYVRPTFYYWGQGTQVTVSS”, the “polyreactivity (PSR sort gate)” value was “low polyreactivity”.
As to “HVQLVESGGGLVQAGGSLRLSCAASGFISVRNGMGWYRQAPGKERELVAAITGSGGSTYYADSVKGRFTISRDNAKNTVYLQMNSLKPEDTAVYYCARTYTVSRKRMGYWGQGTQVTVSS”, the “polyreactivity (PSR sort gate)” value was “high polyreactivity”.
Consider “HVQLVESGGGLVQAGGSLRLSCAASGGIFFDNAMGWYRQGPGKERELVAAIRGDSGSTYYADSVKGRFTISRDNAKNTVYLQMNSLKPEDTAVYYCAAALRDYYPGGEYYSQYEYWGQGTQVTVSS”, for which the “polyreactivity (PSR sort gate)” value is given as “low polyreactivity”.
Under “HVQLVESGGGLVQAGGSLRLSCAASGITFASYGMGWYRPAPGKDRELVAAISQRGGRTYYADSVKGRFTISRDNAKNTVYLQMNSLKPEDTAVYYCARTVGYRTLLESDSWGQGTQVTVAS” stands “high polyreactivity”.
As for “HVQLVESGGGLVQAGGSLRLSCAASGITLVRYAMGWFRPAPGKERELVAAISSSGGSTYYADSVKGRFTISRDNAKNTVYLQMNSLQPEDTAVYYCNAYVHSRRVEFNYWGQGTQVTVSS”, the “polyreactivity (PSR sort gate)” value was “high polyreactivity”.
For “HVQLVESGGGLVQAGGSLRLSCAASGRIFLIYAMGWYRQAPGKEWELFAAIRSGGSTNYADSVKGRFTISRDNAKNTVYLLMNSLNPEDTAVYYCAVRSRVYPSRVKYDYWGQGTQVTVSS”, the “polyreactivity (PSR sort gate)” value is on record as “high polyreactivity”.
As to “HVQLVESGGGLVQAGGSLRLSCAASGRIFWYYTMGWSRQAPGKERELVASINSDSGTYYADSVKGRFTISRDNAKNTVYLQMNRLKPEDTAVYYCTRDSESDANTFTTSGIDEPYDYWGQGTQVTVSS”, the “polyreactivity (PSR sort gate)” value is listed as “low polyreactivity”.
For the sequence “HVQLVESGGGLVQAGGSLRLSCAASGRIFYIYAMGWYRQAPGKERELVAGIRSRGGSTYYADSVKGRFTISRDNAKNTVYLQMNSLKPEDTAVYYCTTEIWGVNSSGYDYWGQGTQVTVSS”, the “polyreactivity (PSR sort gate)” value was “low polyreactivity”.
As for “HVQLVESGGGLVQAGGSLRLSCAASGRILYGNAMGWYRKAPGKDRELVAAISWRADSTYYADSVKGRFTISRDNAKNTVYLQMNSLKPEDTAVYYCAADGNYRRHYWGQGTQVTVSS”, the entry is “high polyreactivity”; as for “HVQLVESGGGLVQAGGSLRLSCAASGRTFFRYVMGWYRQAPGKERELVAAISRSGGSTYYADSVKGRFTISRDNAKNTFYLQMNSLKPEDTAVYYCAASAGPRASYYYWGQGTQVTVSS”, “high polyreactivity”.
Consider “HVQLVESGGGLVQAGGSLRLSCAASGRTFYRYAKGWYRQAPGKEREFVAAISRSGGSTYYAVSVKGRFTISRDNAKNTVYLQMNSLKPEDTAVFYSNKYYWYPYGRAHDYGYWGQGTQVTVSS”, for which the “polyreactivity (PSR sort gate)” value is “high polyreactivity”.
“HVQLVESGGGLVQAGGSLRLSCAASGSIFADNAMGWYRQAPGNERELVAAISRTGGSTYYADSVKGRFTISRDNAKNTVYLQMNSLKPEDTAVYYCAADNGYGRYRRYYYWGQGTQVTVSS”: the “polyreactivity (PSR sort gate)” value is recorded as “high polyreactivity”.
“HVQLVESGGGLVQAGGSLRLSCAASGSIFVPNAMGWYRQALGKERELVAAITYSGGDTYYADSVKGRVTISRDNAMNTVYLQMNSLKPEDTAVYYCAADNGRVGYDYWGQGTQVTVSS”: the “polyreactivity (PSR sort gate)” value is recorded as “low polyreactivity”.
Under “HVQLVESGGGLVQAGGSLRLSCAASGSIYHIYSMGRYRQAPGKERELVAAISFSGGSTYYADSVKGRFTISRDNAKNTVYLQMNSLKPEDNAVYYCAADVYWLPYYYWGQGTLVTVSS” stands “high polyreactivity”; under “HVQLVESGGGLVQAGGSLRLSCAASGSTFAGNAMGWYRQAPGKEWELVAAIDSSTGSTYYADSVKGRFTISRDNAKNTVNLQMNSLKPEDTAVYYCNKTSFLVKLDYWGQGTQVTVSS”, “low polyreactivity”.
For the sequence “HVQLVESGGGLVQAGGSLRLSCAASGSTIGRYAIGWYRQAPGEERELVAAISYSGGSTYYADSVKGRFTISRDNAKNTVYIQMNSLKPEDTAAYYCAKGLSTGRAYRGYDYWGQGTQVTVSS”, the “polyreactivity (PSR sort gate)” value is recorded as “high polyreactivity”.
Under “HVQLVESGGGLVQAGGSLRLSCAASGSTLYSYAMGWYRQAPGKARELVAAISIGDSTNYADSVKGRFTISRDNAKNTVYLQMNSLKPEDTAVYYCNADRALGYYVVVFIFEYWGQGTQVTVSS” stands “low polyreactivity”; under “HVQLVESGGGLVQAGGSLRLSSTASGSTFGYYAMGWNRQAPGKERELVAAISGIGGSTYYADSVKGRFTISRDNAKNTVYLQMNSLKPEDTAVYFCAADLYYVTWDYNYWGQGTQVTVSS”, “low polyreactivity”.
In the case of “HVQLVESGGGLVQAGGSQRLSCAPSGSTFYYNAMGSYRQAPGKERELVAAISKTGGSTYYADSVKGRFTISRDYAKNTVYLQMNSLKPVDTAVYYCAAVGSRGAWARRGYWGQGTHVTVSS”, the “polyreactivity (PSR sort gate)” value is recorded as “high polyreactivity”.
As for “HVQLVESGGGLVQARGSLRLSCAASGSTFDNYTMGWYRQAPGKERELVAAITRNSGSTYYADSVKGRFTISRDNEKNSVYLHMNSLKPEDTAVYYCAADSYYRRYFGWYEYWGQGTQVTVSS”, the entry is “high polyreactivity”.
In the case of “HVQLVESGGGLVQEGGSLRLSCAASGSILNQNAMGWYRQARGKERELVASISWDGDRTYYADSVKGRFTISRDNAKNTVYLQMNSLKPEDTAVYYCAASFYGIDRMGYWGQGTQVTVSS”, the “polyreactivity (PSR sort gate)” value is “low polyreactivity”.
As for “HVQLVESGGGLVQEGRSLRLSCAASGFTFVGNAMGWYRQATGKERELVAAIRWSSGSTYYADSVKWRFTISRDNAKNTVYLQMNSLKPDDTAVYYCNAVYSVFYEYDYWGQGTQVTVSS”, the entry is “low polyreactivity”; as for “HVQLVESGGVLVQAGGSLRLSCAASGRIFRQNTMGWYRQAPGKEREIDATISWRGTRTNYADSVKGRFTISRDNAKNTVYLQMNSLKPEDTAVYYCNAQSWAYTLRTSLYDYWGQGTQVTVSS”, “high polyreactivity”; as for “HVQLVESGVGLVQAAGILRLSCAASGRTFSVYVMGWYRQATGKERELVAAISTSGARTYYADSVKGRFTISRDHAKNTVFLQMNSLKPEATAVYYCGARAIYKSKYDYWGHGTQVTVSS”, “high polyreactivity”.
As for “HVQLVESGVGLVQAGGSLRLSCAASGSTFDGYLMGWYRQAPGKERELVAAISRSGGSTYYADSVKGRFTIARDNAKNTVYLQMNSLKPEDTAVYYCAARNSPGLPGDYWGQGTQVTVSS”, the “polyreactivity (PSR sort gate)” value is “high polyreactivity”.
Under “IIQAGGSLRLCCAASGRTISVYAMGWYTQAAGKERELIADITSGGSTNYADSVKGRFTISRDNAKNTVYLQRNSLKPEDTAVYYCVAERQIRSFWSSRTYVFGYWGQGTQVTVSS” stands “low polyreactivity”; under “IIQAGGSLRLSCAASGSTLIGYTMGWYRQAPGKERELVAAITWGAGSTNYADSVKGRFTISRDNAKNTVYLQMNSLKPEDTAVYYCNADSTSDPRYLGEYDYWGQGTQVTVSS”, “low polyreactivity”.
Under “KDQLVESGGGLVQAGGSLRLSCAASGRTFSHYTMGWYIQAPGKERELVARITRRGGRTYYADSVKGRFTISRDDAKNTVFLQMISLKPEDSAVYFCANEPWGYTRYTTYDYWGQGTQVTVSS” stands “high polyreactivity”.
Regarding “KLQLVESGGGLDQAGGSLRLSCAASGSIFVAYAMGSYRQAPGKERELVAAISKSGGSKYYADSVKGRFTISRDNAKNTVFLQMNSLKPEDTAVYYCAAGSDDFSRFGYWGQGTQVTVSS”, the “polyreactivity (PSR sort gate)” value is recorded as “low polyreactivity”.
